Test results as given in IntAct's records for PubMed 22056988.

B1: Catenin beta-1 (Homo sapiens), P35222 (parent)
chain: MATQADLMELDMAMEPDRKAAVSHWQQQSYLDSGIHSGATTTAPSLSGKGNPEEEDVDTSQVLYEWEQGFSQSFTQEQVADIDGQYAMTRAQRVRAAMFPETLDEGMQIPSTQFDAAHPTNVQRLAEPSQMLKHAVVNLINYQDDAELATRAIPELTKLLNDEDQVVVNKAAVMVHQLSKKEASRHAIMRSPQMVSAIVRTMQNTNDVETARCTAGTLHNLSHHREGLLAIFKSGGIPALVKMLGSPVDSVLFYAITTLHNLLLHQEGAKMAVRLAGGLQKMVALLNKTNVKFLAITTDCLQILAYGNQESKLIILASGGPQALVNIMRTYTYEKLLWTTSRVLKVLSVCSSNKPAIVEAGGMQALGLHLTDPSQRLVQNCLWTLRNLSDAATKQEGMEGLLGTLVQLLGSDDINVVTCAAGILSNLTCNNYKNKMMVCQVGGIEALVRTVLRAGDREDITEPAICALRHLTSRHQEAEMAQNAVRLHYGLPVVVKLLHPPSHWPLIKATVGLIRNLALCPANHAPLREQGAIPRLVQLLVRAHQDTQRRTSMGGTQQQFVEGVRMEEIVEGCTGALHILARDVHNRIVIRGLNTIPLFVQLLYSPIENIQRVAAGVLCELAQDKEAAEAIEAEGATAPLTELLHSRNEGVATYAAAVLFRMSEDKPQDYKKRLSVELTSSLFRTEPMAWNETADLGLDIGAQGEPLGYRQDDPSYRSFHSGGYGQDALGMDPMMEHEMGGHHPGADYPVDGLPDLGHAQDLMDGLPPGDSNQLAWFDTDL

Variants of: B1
Details: with src_human SRC

| effect of a mutation on the interaction | Variant |
| --- | --- |
| decreasing interaction | Y333F |
